B1: Reg1-FLAG (wild type) [S. cerevisiae] / Snf1-GFP [S. cerevisiae] (parent complex)
chain 1: MSTNLANYFAGKKDIENEHVNRNASHESNSKSDVKISGNDNDNDEDMGPSVSMAVQAKNDDDFHKSTFNLKRTRSMGLLDEYIDPTKKLLGRSDDLYDNDNEYYDNSSNNSSSNSSDDDYDDGYQEHSTSVSPPPADNDSYLIPQDDNDVVVEPERHVDYLSHEWKESEISNSWKYIILKKKKRDVDLVNAARLENASWRTWAKARNNLKTVSPEVVNWSKDSDVTWLYGPIVRDSEGNAQSEEEHDLERGYGSDDENSKRISMPTKNSKSIAAAPKPILKKRTVTEIIEDNALWKLNEARKHMTEMKHASVIMDPNGNKNVHDDFDALAAQVNAQYYHYPKESNSSVSLKSQHSDKKDNSTIPNPVGENSNGGGDKGEEDLHLKSALHVQNNRSTAQSNKSILENSTNDRKANLDQNLNSPDNNRFPSSTSSSNRDNENNSMGLSSILTSNPSEKSNKPTKNRHIHFNDRVEQCMALRYPASQSEDDESDDENKQYVDVNNNANVTTINNNRTPLLAIQHKSIPINSATEHLNKNTSDDDTSSQSSSSSHSDDEEHGGLYINARFSRRSDSGVHSPITDNSSVASSTTSRAHVRPIIKLLPDTTLNYGSDEESDNGEFNGYGNAVSHNVNTSRGYDYIYDYNSVYTGDTSSFLPVDSCDIVDVPEGMDLQTAIADDNASNYEFNNAVESKEKHVPQLHKASANNTTRQHGSHMLLYDDDNYSSSSDSEQQFIEDSQYNSSDDEEEEDDDDQEVDDNHDEGLSLRRTLSLGKSGSTNSLYDLAQPSLSSATPQQKNPTNFTGGKTDVDKDAQLAVRPYPLKRNSSSGNFIFNSDSEEESSSEEEQRPLPANSQLVNRSVLKGSVTPANISSQKKKALPKQPKASDSSQSFRIVNNTPSPAEVGASDVAIEGYFSPRNESIKSVVSGGNMMDHQDHSEMDTLAKGFENCHINNASKLKDKKVDSVQTTRKEASLTDSSNESLHKVVQNARGMASKYLHSWKKSDVKPQENGNDSS
chain 2: MSSNNNTNTAPANANSSHHHHHHHHHHHHHGHGGSNSTLNNPKSSLADGAHIGNYQIVKTLGEGSFGKVKLAYHTTTGQKVALKIINKKVLAKSDMQGRIEREISYLRLLRHPHIIKLYDVIKSKDEIIMVIEYAGNELFDYIVQRDKMSEQEARRFFQQIISAVEYCHRHKIVHRDLKPENLLLDEHLNVKIADFGLSNIMTDGNFLKTSCGSPNYAAPEVISGKLYAGPEVDVWSCGVILYVMLCRRLPFDDESIPVLFKNISNGVYTLPKFLSPGAAGLIKRMLIVNPLNRISIHEIMQDDWFKVDLPEYLLPPDLKPHPEEENENNDSKKDGSSPDNDEIDDNLVNILSSTMGYEKDEIYESLESSEDTPAFNEIRDAYMLIKENKSLIKDMKANKSVSDELDTFLSQSPPTFQQQSKSHQKSQVDHETAKQHARRMASAITQQRTYHQSPFMDQYKEEDSTVSILPTSLPQIHRANMLAQGSPAASKISPLVTKKSKTRWHFGIRSRSYPLDVMGEIYIALKNLGAEWAKPSEEDLWTIKLRWKYDIGNKTNTNEKIPDLMKMVIQLFQIETNNYLVDFKFDGWESSYGDDTTVSNISEDEMSTFSAYPFLHLTTKLIMELAVNSQSN
B2: Reg1-FLAG (wild type) [S. cerevisiae] / Glc7-GFP [S. cerevisiae] (parent complex)
chain 1: B1 chain 1
chain 2: MDSQPVDVDNIIDRLLEVRGSKPGQQVDLEENEIRYLCSKARSIFIKQPILLELEAPIKICGDIHGQYYDLLRLFEYGGFPPESNYLFLGDYVDRGKQSLETICLLLAYKIKYPENFFILRGNHECASINRIYGFYDECKRRYNIKLWKTFTDCFNCLPIAAIIDEKIFCMHGGLSPDLNSMEQIRRVMRPTDIPDVGLLCDLLWSDPDKDIVGWSENDRGVSFTFGPDVVNRFLQKQDMELICRAHQVVEDGYEFFSKRQLVTLFSAPNYCGEFDNAGAMMSVDESLLCSFQILKPAQKSLPRQAGGRKKK

Variants of: B1
Test: co-immunoprecipitation (anti-FLAG IP, immunoblot quantification); n = 3; reg1Δ Snf1-GFP Glc7-GFP cells; parent: 1; read off a plot
Variant chain 1 A54T has a ratio to parent of about 0.84. chain 1 W165G was tested, and the ratio to parent was about 0.8. Variant chain 1 P278Q has a ratio to parent of about 0.95. Work on chain 1 P231S yielded a ratio to parent of about 1.1. With chain 1 N624S the ratio to parent was about 0.74.

Variants of: B2
Test: as above
chain 1 P231S was tested, and the ratio to parent was about 0.81. With chain 1 W165G the ratio to parent was about 0.66. chain 1 A54T gave a ratio to parent of about 0.93. In the case of chain 1 P278Q, the ratio to parent is reported as about 0.8. chain 1 N624S was tested, and the ratio to parent was about 1.5.

Reference: article PMC12520357 (2025)
